# Data from the domain aggregation screens of Martell et al. (2025).
# Experiment: soluble fraction after stress (log2 fold change); higher = more stays soluble; pooled small domains, quantitative proteomics
# Conditions: stress: 75 degC
# 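Also: 20 min heating vs room temperature control held 20 min.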
row,Sequence,soluble fraction (log2)
1,HMTNYREILRLRSLGLNHSRIAESMGISRPTVIAALQRAQTQELNWQAAESLSDIDLAQRLNP,-0.847
2,HMTNYYTVTFKEGDTVLKEVSVHSGDGVPYAVAPKRDDIVGWSYNGNTYTTDLNTLKIKKEVTFTAVT,0.235
3,HMTPAIEKTAVIVFINGKKYYVHTVKSGETLYSIAKAYKVDEKVIKEHNPNVADGLRIDQTVKIPVPEQVK,-0.549
4,HMTPAPHESLTDREMEVLKLLAQGLSNQEIADKLFIGVKTVKYHITNIFSKLGVEDRTQAAIYAHKQGLA,-0.475
5,HMTPDDSYIAGYAAGILKHQFLIDAPELIVRNGTITIPADKVSAGDRAKVVQILSGIPGVTRVEVG,0.224
6,HMTPDVHRGDTITVSLRAGAIRVRVPAKALEEGAAGGEIRVVNLTGGREYRVRVTGPGTAEAIL,-0.966
7,HMTPEGAYTVSEIVKVINSFADEYKVPFTMHVSGYKYEEIAQQLGLPIGTVKSRIFFARKRLQELLN,-2.45
8,HMTPEPVTMYITSLTEFRSEPNTEAGIIKLLDAYEEVEMIESRGEWSKISYGDQIGYILSEFLTAENRT,-0.85
9,HMTPILTAQQVVAALQAAGYRNVHDLEFEHGRWEADAVNAAGQRVELHINPYTGAIERERLD,0.584
10,HMTPKTSVPKPGQTVVVRKGDTIYALARIHDITPADLIAWNRLDNPSQIYPGQVIRLYPQGA,-0.563
11,HMTPKVDLTVAEDGSASAVIAGLRVEIDAAGKVTAVAPADGTTDLSSVAPEAVKEAMDNALAAYTASKG,0.12
12,HMTPLFNQGEVLKGFVLQTGTNNRVLLQIGTAKVLADAQTPLKAGEQLTLRVEATGPRTVLQILG,-0.461
13,HMTPLILTAQEGGERLDAFVASQVEDLTRSAAQRLLEQGAVTSGGKPLKKNAKTTPGMVVEVLLPDPQ,-0.113
14,HMTPPPTNSREWMEWGISHGLDANLDRSGQVVFYTDDRVVADAAELSGADLERDNMGQFVIYTGAYDKG,0.0155
15,HMTPQEQWNNAYLLAKDYYDANGNLDIDEKYKTKDGFELGSWLTTQRNVYKRGKLSPEKTKKLEEIGISF,0.0776
16,HMTPQGALDYSRNAKYLRDQVTAINYLKQARLSLNTTDANYRQTLEQINQAIAKHNQALQQAGVQSQQLAT,-0.00591

row,Sequence,soluble fraction (log2)
1,HMTPTPQQNNILVGQTGTTLTRLAPMGKVRVGEVTAEAKTIDGYINPRQSVEVIGFENTVVIVRAV,-0.748
2,HMTPVIINESGGDQDTRIEGLNDNNLLYVDASTDRVGVGVATPTQKLDVNGDVAISGGSLYLSQ,0.183
3,HMTPVKAPLPGVVTKINVSVGQQVKKGENVLVLEAMKMENNIAAEADGTVSGIAVKAGDSVLEGAVLLTI,0.0213
4,HMTPVTYELTVQSGAGQRIDKYLSEQLADLTRSYLQKLLKDGGVTVNGKTVKSNYKLSENDQIFLEVPDA,0.0544
5,HMTPVYLNARQKQILAFLKREEPAKVGDIAHALKTISINTLKKDLLYLRQKNLIESHGVLKGTIYTVK,-1.6
6,HMTQEFIVPKVTGYTVEDAMNLSGVKDVFEITVDSTEKSDQPAGIILFQDPKDGSSRKSDLVIHVVVSAGS,-0.363
7,HMTQEQKQQISDQLRAYVEQKGSGNKAAASMNGVSSATISKVLAGKWETISEDMWRSIAAQTGH,0.325
8,HMTQFSLTTEEINVLKKSYSEFTDSDKELFNKILEKYNKFKNESSNDIAFEAKILEKLQEIENFYE,-0.00344
9,HMTQMSVLFSELEAKDAATIADKLRERNIPYELSNNGSTILIPQEVLHDTRLSLASEGLPES,0.0765
10,HMTQPAEINRLVEQMGSSDYKSRQEAYERLHQMGPGILDLIYPYRNHADPEIQTRVRELILSYRW,-0.0738
11,HMTQQNRDELYRRMIDAGWDQLVRNGIRSLRVEQVAAAVGIAKGTFYHFFDSKDDFIYAMLMENRQ,-3.41
12,HMTQSPLHWSHRPIDLSELLTYLDRDGAFVYASGHKAPFTEVVRGFEHLLNIRLGDPRDVKRSVLQR,-0.109
13,HMTQTGEVIRWDAERGFGFIATADGRRHVFFHVRDFRGGAAPGVGLRVGFEEIQVGGKGPRAMDVRPL,-1.28
14,HMTRDGMTKEAFDSLLEDIMNILLDNGLKATTMGSIAKSLKMSKRTLYEIFSSKSQMVEEAIIASHTKMM,0.214
15,HMTREAILDTAEELLQRRGYNAFSYHHIAVQLGIRNAAIHYHFPAKEDLGIELVSRFRIRLAE,-0.28
